The source of these data is patent publication US20080118487A1.

Substitutions are numbered along the chain they refer to. Where no end group is shown, it is not given here.

The target in assay [1] is T1, recombinant myostatin (Example 4).
T1 sequence (O14793 267-375, species assumed, looked up): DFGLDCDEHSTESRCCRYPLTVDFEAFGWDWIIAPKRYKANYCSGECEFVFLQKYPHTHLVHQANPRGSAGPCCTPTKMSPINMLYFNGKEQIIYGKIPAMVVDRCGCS
Description: cell-based or functional assay.

In assay [2] the target is T2, recombinant bovine mature myostatin (bovine) (UniProt O18836).
T2 sequence (looked up): T1 sequence (O14793 267-375, species assumed, looked up) with K90E, E91G
The experiment in a line: cell-based or functional assay.

B1: recombinant ovine myostatin splice variant 65 (roMSV65) (peptide, not shown: small tags and cut ends)
chain: VHFYTPPYGQWIFHKERKIIFLEVYIQFCSILGEAVFKRQSKSIHFCQNFKIIACLCNTAAFRMK
Turning to B1, the rescue of myostatin inhibited myoblast proliferation (C2C12, methylene blue assay) (molar ratio roMSV65 to myostatin) in assay [1] worked out at 20.

B2: recombinant human MSV38 (rhMSV38) (peptide, not shown: small tags and cut ends)
chain: VHFPTPPNEEWIFFNVRRIIFLEVGFQFCSILGETALS
modifications: also: 36-aa N-terminal pET100/D-TOPO tag (enterokinase site, Xpress epitope, His), letters not shown
In the case of B2, in assay [2], the proliferation of primary human myoblasts inhibited by myostatin (molar ratio rhMSV38 to myostatin) is 10 and the restoration of proliferation of human primary myoblasts inhibited by myostatin (methylene blue assay) (molar ratio rhMSV38 to myostatin) turned out to be 1.

B3: recombinant ovine MSV47 (roMSV47) (peptide, not shown: small tags and cut ends)
chain: IIFLEVYIQFCSILGEAVFKRQSKSIHFCQNFKIIACLCNTAAFRMK
modifications: ends and bridges not checked; also: 36-aa N-terminal pET100/D-TOPO tag (enterokinase site, Xpress epitope, His), letters not shown
On to B3, for which, in assay [2], the rescue of myostatin inhibited myoblast proliferation (C2C12, methylene blue assay) (molar ratio roMSV47 to myostatin) was 1 and the restoring proliferation of C2C12 myoblasts inhibited by myostatin (molar ratio roMSV47 to myostatin) is 10.
